# Where no end group is shown, it is not given here.
# What was measured:
# [1] = target: antibody P1, specific for the PSA-derived 8-mer PET sequence EPAELTDA; test: peptide competition ELISA
# [2] = target: antibody P1, specific for the PSA-derived 8-mer PET sequence EPAELTDA; test: peptide competition ELISA; soluble peptide competes with coated target peptide for P1
# [3] = target: antibody C1, specific for the CRP-derived 8-mer PET sequence YEVQGEVF; test: peptide competition ELISA; soluble peptide competes with coated target peptide for C1
# [4] = target: antibody C1, specific for the CRP-derived 8-mer PET sequence YEVQGEVF; test: peptide competition ELISA
Binder,"fold higher concentration without effect, against the antigen PET EPAELTDA [1] [fold]",IC50 [2] [µM],IC50 [3] [µM],"fold higher concentration without effect, against the antigen PET YEVQGEVF [4] [fold]"
EPVELTSA [nearest-neighbor 8-mer peptide EPVELTSA],25000,> 1000,,
DPTQLTDA [nearest-neighbor 8-mer peptide DPTQLTDA],25000,> 1000,,
YEVQGEVF [CRP-derived 8-mer PET peptide YEVQGEVF],,,1,
VEVNGEVF [nearest-neighbor 8-mer peptide VEVNGEVF],,,> 1000,> 1000
YEVLGEEF [nearest-neighbor 8-mer peptide YEVLGEEF],,,> 1000,> 1000
EPAELTDA (not fully specified) [PSA-derived 8-mer PET peptide EPAELTDA],,0.04,,

# Reference: US20100184613A1
